B1: ZNF8 (parent)
chain: VHVIGVEEPSVGASMLFDIREST

The source of these data is the supplement of paper PMC10567573.
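Further: lentivirally expressed fusions sorted by FACS into six bins by GFP to DsRed ratio, PSI derived from sequencing read proportions per bin multiplied by bin number.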

Variants of B1 are the subject of this data set. Put plainly: protein stability index of a GFP-peptide fusion (GPS, HEK-293T) (PSI 1-6); higher = more stable. To be noted: c terminus: native.
Turning to VHVIGVEEKSVGASMLFDIREST [P9K], the protein stability index was 2.31.

VHVIGVEEHSVGASMLFDIREST [P9H]: the protein stability index came out at 1.74.

As to VHVIGVEEISVGASMLFDIREST [P9I], the protein stability index turned out to be 2.47.

With VHVIGVEEFSVGASMLFDIREST [P9F], the protein stability index is 2.45.

In the case of VHVIGVEELSVGASMLFDIREST [P9L], the protein stability index stood at 2.23.

Turning to VHVIGVEEGSVGASMLFDIREST [P9G], the protein stability index is 2.31.

Regarding VHVIGVEEQSVGASMLFDIREST [P9Q], the protein stability index came out at 2.17.

VHVIGVEEESVGASMLFDIREST [P9E]: the protein stability index stood at 2.44.

Take VHVIGVEEWSVGASMLFDIREST [P9W]: the protein stability index worked out at 3.09.

Regarding VHVIGVEETSVGASMLFDIREST [P9T], the protein stability index is 2.12.

Consider VHVIGVEEMSVGASMLFDIREST [P9M], for which the protein stability index is 2.09.

With VHVIGVEENSVGASMLFDIREST [P9N], the protein stability index is 2.27.

VHVIGVEESSVGASMLFDIREST [P9S]: the protein stability index turned out to be 1.73.

On to VHVIGVEERSVGASMLFDIREST [P9R], for which the protein stability index came to 2.27.

With VHVIGVEEVSVGASMLFDIREST [P9V], the protein stability index worked out at 1.44.

Consider VHVIGVEEDSVGASMLFDIREST [P9D], for which the protein stability index was determined as 2.53.

In the case of VHVIGVEECSVGASMLFDIREST [P9C], the protein stability index stood at 1.87.

On to VHVIGVEEYSVGASMLFDIREST [P9Y], for which the protein stability index amounted to 2.19.

VHVIGVEEASVGASMLFDIREST [P9A]: the protein stability index came out at 2.65.

As to VHVIGVEEPSMGASMLFDIREST [V11M], the protein stability index was determined as 1.82.

On to VHVIGVEEPSAGASMLFDIREST [V11A], for which the protein stability index came out at 2.38.

Consider VHVIGVEEPSSGASMLFDIREST [V11S], for which the protein stability index stood at 2.33.

In the case of VHVIGVEEPSHGASMLFDIREST [V11H], the protein stability index was determined as 2.42.

With VHVIGVEEPSGGASMLFDIREST [V11G], the protein stability index amounted to 2.28.

On to VHVIGVEEPSDGASMLFDIREST [V11D], for which the protein stability index was determined as 2.69.

On to VHVIGVEEPSKGASMLFDIREST [V11K], for which the protein stability index is 2.27.

Regarding VHVIGVEEPSTGASMLFDIREST [V11T], the protein stability index is 2.24.

With VHVIGVEEPSQGASMLFDIREST [V11Q], the protein stability index was 2.1.

VHVIGVEEPSPGASMLFDIREST [V11P]: the protein stability index is 2.65.

Consider VHVIGVEEPSNGASMLFDIREST [V11N], for which the protein stability index was 2.35.

Consider VHVIGVEEPSEGASMLFDIREST [V11E], for which the protein stability index was found to be 2.87.

VHVIGVEEPSCGASMLFDIREST [V11C]: the protein stability index came to 1.91.

As for VHVIGVEEPSWGASMLFDIREST [V11W], the protein stability index came out at 1.44.

As to VHVIGVEEPSRGASMLFDIREST [V11R], the protein stability index worked out at 1.9.

Turning to VHVIGVEEPSFGASMLFDIREST [V11F], the protein stability index worked out at 2.17.

For the variant VHVIGVEEPSIGASMLFDIREST [V11I], the protein stability index was determined as 1.91.

Regarding VHVIGVEEPSLGASMLFDIREST [V11L], the protein stability index was found to be 1.85.

Consider VHVIGVEEPSYGASMLFDIREST [V11Y], for which the protein stability index was 1.92.

Take VHVIQVEEPSVGASMLFDIREST [G5Q]: the protein stability index was determined as 1.66.

Consider VHVIEVEEPSVGASMLFDIREST [G5E], for which the protein stability index stood at 2.42.

On to VHVIYVEEPSVGASMLFDIREST [G5Y], for which the protein stability index turned out to be 2.35.

Take VHVIVVEEPSVGASMLFDIREST [G5V]: the protein stability index amounted to 2.71.

In the case of VHVIRVEEPSVGASMLFDIREST [G5R], the protein stability index stood at 1.61.

For VHVIFVEEPSVGASMLFDIREST [G5F], the protein stability index was 2.47.

VHVISVEEPSVGASMLFDIREST [G5S]: the protein stability index stood at 1.56.

With VHVINVEEPSVGASMLFDIREST [G5N], the protein stability index was 2.18.

In the case of VHVILVEEPSVGASMLFDIREST [G5L], the protein stability index came to 3.04.

In the case of VHVIWVEEPSVGASMLFDIREST [G5W], the protein stability index amounted to 2.37.

In the case of VHVIKVEEPSVGASMLFDIREST [G5K], the protein stability index was 1.95.

Turning to VHVITVEEPSVGASMLFDIREST [G5T], the protein stability index amounted to 2.24.

As to VHVIIVEEPSVGASMLFDIREST [G5I], the protein stability index is 2.51.

In the case of VHVIHVEEPSVGASMLFDIREST [G5H], the protein stability index was found to be 1.6.

VHVIMVEEPSVGASMLFDIREST [G5M]: the protein stability index came to 2.84.

On to VHVIDVEEPSVGASMLFDIREST [G5D], for which the protein stability index amounted to 3.11.

Consider VHVIPVEEPSVGASMLFDIREST [G5P], for which the protein stability index worked out at 2.36.

VHVIGVEEPSVRASMLFDIREST [G12R]: the protein stability index turned out to be 2.4.

Take VHVIGVEEPSVSASMLFDIREST [G12S]: the protein stability index was 2.19.

On to VHVIGVEEPSVLASMLFDIREST [G12L], for which the protein stability index was 1.52.

On to VHVIGVEEPSVQASMLFDIREST [G12Q], for which the protein stability index worked out at 1.88.

Consider VHVIGVEEPSVMASMLFDIREST [G12M], for which the protein stability index came to 1.71.

On to VHVIGVEEPSVPASMLFDIREST [G12P], for which the protein stability index amounted to 2.16.

For the variant VHVIGVEEPSVTASMLFDIREST [G12T], the protein stability index was determined as 1.56.

Turning to VHVIGVEEPSVIASMLFDIREST [G12I], the protein stability index was found to be 1.78.

Turning to VHVIGVEEPSVHASMLFDIREST [G12H], the protein stability index turned out to be 2.1.

For VHVIGVEEPSVCASMLFDIREST [G12C], the protein stability index worked out at 1.78.

With VHVIGVEEPSVNASMLFDIREST [G12N], the protein stability index was found to be 2.29.

Consider VHVIGVEEPSVDASMLFDIREST [G12D], for which the protein stability index is 2.87.

For the variant VHVIGVEEPSVEASMLFDIREST [G12E], the protein stability index came to 2.45.

In the case of VHVIGVEEPSVFASMLFDIREST [G12F], the protein stability index was 2.1.

In the case of VHVIGVEEPSVYASMLFDIREST [G12Y], the protein stability index stood at 2.95.

VHVIGVEEPSVVASMLFDIREST [G12V]: the protein stability index is 1.7.

For the variant VHVIGVEEPSVKASMLFDIREST [G12K], the protein stability index worked out at 1.9.

For the variant VHVIGVEEPSVWASMLFDIREST [G12W], the protein stability index was found to be 2.88.

Take VHVIGVEEPSVAASMLFDIREST [G12A]: the protein stability index was 1.93.

With VHVIGVEEPSVGASELFDIREST [M15E], the protein stability index was determined as 3.67.

Consider VHVIGVEEPSVGASALFDIREST [M15A], for which the protein stability index came out at 2.88.

With VHVIGVEEPSVGASFLFDIREST [M15F], the protein stability index stood at 1.62.

For the variant VHVIGVEEPSVGASGLFDIREST [M15G], the protein stability index was 3.15.

Consider VHVIGVEEPSVGASDLFDIREST [M15D], for which the protein stability index was 2.93.

Regarding VHVIGVEEPSVGASCLFDIREST [M15C], the protein stability index was 2.49.

For VHVIGVEEPWVGASMLFDIREST [S10W], the protein stability index is 1.68.

On to VHVIGVEEPNVGASMLFDIREST [S10N], for which the protein stability index turned out to be 2.23.

VHVIGVEEPDVGASMLFDIREST [S10D]: the protein stability index was found to be 2.48.

VHVIGVEEPFVGASMLFDIREST [S10F]: the protein stability index stood at 1.26.

As to VHVIGVEEPRVGASMLFDIREST [S10R], the protein stability index came out at 1.71.

Take VHVIGVEEPYVGASMLFDIREST [S10Y]: the protein stability index stood at 2.02.

As to VHVIGVEEPGVGASMLFDIREST [S10G], the protein stability index was 2.1.

As to VHVIGVEEPTVGASMLFDIREST [S10T], the protein stability index amounted to 2.24.

With VHVIGVEEPMVGASMLFDIREST [S10M], the protein stability index was found to be 1.52.

Turning to VHVIGVEEPAVGASMLFDIREST [S10A], the protein stability index was determined as 2.58.

As for VHVIGVEEPLVGASMLFDIREST [S10L], the protein stability index was 1.84.

As for VHVIGVEEPKVGASMLFDIREST [S10K], the protein stability index came to 1.99.

For VHVIGVEEPPVGASMLFDIREST [S10P], the protein stability index was found to be 2.03.

VHVIGVEEPEVGASMLFDIREST [S10E]: the protein stability index came out at 2.25.

With VHVIGVEEPIVGASMLFDIREST [S10I], the protein stability index was found to be 2.91.

For the variant VHVIGVEEPVVGASMLFDIREST [S10V], the protein stability index came out at 2.16.

For the variant VHVIGVEEPQVGASMLFDIREST [S10Q], the protein stability index amounted to 2.28.
